Substitutions are numbered along the chain they refer to. “And” between values parts separate entries of the source, which are not always exact repeats. Identical values can stand only once. One block for each molecule: values may come before it. Where a SMILES comes first, the peptide text is derived from it.
T1: SERF1a (Homo sapiens, UniProt O75920)
T1 construct: Full-length SERF1a cDNA was amplified by PCR; His-tag with thrombin site (N, cleaved yes); made in house; host or cells: E. coli BL21(DE3), pET14b
T1 sequence (O75920 1-62 isoform O75920-2): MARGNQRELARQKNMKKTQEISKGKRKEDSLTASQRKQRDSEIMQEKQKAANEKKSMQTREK

B1: NT17 peptide (N-terminal 17 amino acids of Htt) (peptide, UniProt P42858 1-17, looked up)
peptide: MATLEKLMKAFESLKSF
notes: N-terminal 17 amino acids of huntingtin; source: synthetic peptide (peptide synthesis core, Genomics Research Center, Academia Sinica)
B2: Human SERF1a (small EDRK-rich factor 1a), short form (natural protein, UniProt O75920-2 1-62, looked up)
chain: T1 sequence (O75920 1-62 isoform O75920-2)
notes: Small EDRK-rich factor 1a, human, short form of 62 residues (the long form has 110); full-length cDNA amplified by PCR from GenBank BC021174; 15N-labelled (M9 minimal medium) for the NMR titration; also called rSERF1a; recombinant SERF1a; source: E. coli BL21(DE3), purified (Ni-Sepharose, thrombin cleavage, Mono-S); not shown: His-tag, N-terminal, cleaved
B3: Htt-0, wild-type Htt peptide of 33 amino acids (peptide)
chain: MATLEKLMKAFESLKSFQQQQQQQQQQQQQQPPP
B4: Htt-1, Htt peptide with four leucines in the polyQ region (peptide)
chain: B3 chain with Q18L, Q21L, Q25L, Q28L

Key:
SERF1a [1] = target: T1, SERF1a; experiment: Isothermal titration calorimetry of Htt peptides with SERF1a; format: binding; details: ITC, 250 μM SERF1a injected into 50 μM peptide, 10 mM PB pH 7.4, 26 °C
Experimental: MicroCal iTC200 (GE) was used for ITC experiments. SERF1a was in 10 mM PB, pH 7.4. For Htt-0, Htt-1, Htt-2, Htt-4, and Htt-5, 300 μM SERF1a in syringe was injected into the cell containing 30 μM Htt peptides. The volume of each injection was 2 μl. For Htt-3 and NT17, 250 μM SERF1a in syringe was injected into the cell containing 50 μM Htt peptides. The volume of each injection was 1.5 μl. The cell of the calorimeter was maintained at 26 °C. ITC analysis software MicroCal Analysis Launcher (GE Healthcare) was used for data analysis.

SERF1a [2] = target: T1, SERF1a; experiment: Intrinsic tyrosine fluorescence titration of Aβ or α-synuclein with SERF1a; format: binding; details: tyrosine fluorescence quenching upon SERF1a titration, fitted
[3] = ThT assay of Aβ and α-synuclein fibrillization with and without SERF1a; format: physicochemical; details: Aβ 25 μM, α-synuclein 50 μM, 25 °C, shaking
Experimental: For SERF1a and α-synuclein aggregation assay, α-Synuclein at 50 μM in Tris buffer (10 mM Tris-HCl, pH 7.4, and 150 mM NaCl) was incubated with different SERF1a concentrations in a 384-well ELISA plate. ThT at 10 μM was added in the samples. The samples were constantly rotated at 400 rpm during the incubation. ThT fluorescence was measured at 485 nm with an excitation of 442 nm at 25 °C by a microplate reader (SpectraMax M5; Molecule Devices) with SoftMax Pro 5.4. The data from independent trials were averaged, and the standard deviations were calculated.
were incubated at 25 °C with continuous shaking at 800 rpm. ThT fluorescence at 485 nm was monitored with excitation at 442 nm. The error bars represent standard deviation.

[4] = target: B2; experiment: ITC; 250 μM SERF1a in syringe injected into 50 μM Htt-3 or NT17 in the cell; 10 mM PB pH 7.4, 26 °C, 1.5 μl injections; details: both partners purified
[5] = target: Htt-3 peptide (four prolines at a/d positions of the polyQ region); experiment: as above
[6] = target: B1; experiment: as above; details: both partners purified
α-Synuclein, P37840 = experiment: other fluorescence titration; tyrosine fluorescence of Aβ or α-synuclein titrated with SERF1a at different concentrations; quenching fitted; details: remark: other sources report otherwise
[7] = target: the molecule itself; experiment: AUC; sedimentation velocity; NT17 and Htt-3 at 50 μM, Htt-0, Htt-1, Htt-2, Htt-4 and Htt-5 at 30 μM, in 10 mM PB pH 7.4, 42,000 rpm for 24 h at 25 °C; c(s) distribution, SEDFIT

- Kd (SERF1a [1]): 332 nM
Molecule: CSCC[C@H](NC(=O)[C@H](CC(C)C)NC(=O)[C@H](CCCCN)NC(=O)[C@H](CCC(=O)O)NC(=O)[C@H](CC(C)C)NC(=O)[C@@H](NC(=O)[C@H](C)NC(=O)[C@@H](N)CCSC)[C@@H](C)O)C(=O)N[C@@H](CCCCN)C(=O)N[C@@H](C)C(=O)N[C@@H](Cc1ccccc1)C(=O)N[C@@H](CCC(=O)O)C(=O)N[C@@H](CO)C(=O)N[C@@H](CC(C)C)C(=O)N[C@@H](CCCCN)C(=O)N[C@@H](CO)C(=O)N[C@@H](Cc1ccccc1)C(=O)N1CCC[C@H]1C(=O)N[C@@H](CCC(N)=O)C(=O)N[C@@H](CCC(N)=O)C(=O)N1CCC[C@H]1C(=O)N[C@@H](CCC(N)=O)C(=O)N[C@@H](CCC(N)=O)C(=O)N[C@@H](CCC(N)=O)C(=O)N1CCC[C@H]1C(=O)N[C@@H](CCC(N)=O)C(=O)N[C@@H](CCC(N)=O)C(=O)N1CCC[C@H]1C(=O)N[C@@H](CCC(N)=O)C(=O)N[C@@H](CCC(N)=O)C(=O)N[C@@H](CCC(N)=O)C(=O)N[C@@H](Cc1ccc(O)cc1)C(=O)N[C@@H](CCCCN)C(=O)O [Htt-3] (H-MATLEKLMKAFESLKSFPQQPQQQPQQPQQQYK-OH)

- Kd (SERF1a [2]): 20800 ± 8300 nM
Molecule: α-synuclein
- effect of SERF1a on fibrillization (ThT assay) [3]: accelerated

Molecule: B1
- Ka [4]: 1.38e+07 M⁻¹
- Kd [4]: 72.5 nM

Molecule: B2
- Ka [5]: 3.01e+06 M⁻¹
- Kd [5]: 332 nM
- stoichiometry N [5]: 0.5
- stoichiometry N [6]: ~0.5
- Kd (α-Synuclein, P37840): 20800 nM

Molecule: B3
- stoichiometry N [7]: 2

Molecule: B4
- stoichiometry N [7]: 5 and 8
